Assay results: patent US20040229260

What was measured:
[1] = molecular target: protein encoded by the partial P43 cDNA clone
[2] = molecular target: T1, polypeptide encoded by clone J2 (partial sequence of putative human N-acetylglucosamine-6-phosphate deacetylase)
T1 chain: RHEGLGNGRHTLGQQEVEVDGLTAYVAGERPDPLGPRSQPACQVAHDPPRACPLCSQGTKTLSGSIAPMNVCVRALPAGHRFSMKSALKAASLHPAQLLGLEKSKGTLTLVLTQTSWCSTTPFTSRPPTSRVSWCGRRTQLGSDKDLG

[3] = molecular target: T2, protein encoded by clone B33 (cDNA insert homologous to C-terminus of Nucleobindin), Q02818
T2 chain: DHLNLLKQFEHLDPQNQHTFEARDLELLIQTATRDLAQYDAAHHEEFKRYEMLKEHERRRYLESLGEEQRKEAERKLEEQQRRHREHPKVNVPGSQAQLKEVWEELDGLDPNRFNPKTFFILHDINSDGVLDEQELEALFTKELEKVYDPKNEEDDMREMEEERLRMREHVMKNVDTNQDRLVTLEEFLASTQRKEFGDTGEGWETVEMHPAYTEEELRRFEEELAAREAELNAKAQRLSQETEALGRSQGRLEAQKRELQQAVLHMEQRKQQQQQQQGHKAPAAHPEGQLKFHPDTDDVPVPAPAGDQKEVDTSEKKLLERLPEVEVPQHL

[4] = molecular target: T3, protein encoded by clone L20 (identical to amino acids 104-420 of NEFA), P80303
T3 chain: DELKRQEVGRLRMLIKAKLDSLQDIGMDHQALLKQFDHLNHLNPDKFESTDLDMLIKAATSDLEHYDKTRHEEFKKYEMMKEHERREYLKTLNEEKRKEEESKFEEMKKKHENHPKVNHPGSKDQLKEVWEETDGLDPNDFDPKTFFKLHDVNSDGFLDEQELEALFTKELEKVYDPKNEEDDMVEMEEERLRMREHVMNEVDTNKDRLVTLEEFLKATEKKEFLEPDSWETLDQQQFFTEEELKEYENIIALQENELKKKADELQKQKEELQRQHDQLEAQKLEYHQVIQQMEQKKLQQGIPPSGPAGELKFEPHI

[5] = molecular target: protein encoded by clone L12
[6] = molecular target: protein encoded by clone B11 (cDNA insert homologous to the C-terminal end of CTP-Phosphoenolamine cytidylyltransferase), Q99447
[7] = molecular target: T4, bacterially produced caspase-8 (in-vitro protease assay of Example 2.4), Q14790
T4 chain: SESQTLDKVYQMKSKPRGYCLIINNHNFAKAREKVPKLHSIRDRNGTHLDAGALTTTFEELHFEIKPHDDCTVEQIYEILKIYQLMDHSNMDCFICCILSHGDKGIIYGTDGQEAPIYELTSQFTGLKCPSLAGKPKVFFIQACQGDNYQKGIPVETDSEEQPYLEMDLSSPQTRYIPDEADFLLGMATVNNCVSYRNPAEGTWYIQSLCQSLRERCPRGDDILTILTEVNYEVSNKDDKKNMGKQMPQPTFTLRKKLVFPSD

Chain of protein encoded by clone B11 (cDNA insert homologous to the C-terminal end of CTP-Phosphoenolamine cytidylyltransferase), Q99447 (Q99447 213-389): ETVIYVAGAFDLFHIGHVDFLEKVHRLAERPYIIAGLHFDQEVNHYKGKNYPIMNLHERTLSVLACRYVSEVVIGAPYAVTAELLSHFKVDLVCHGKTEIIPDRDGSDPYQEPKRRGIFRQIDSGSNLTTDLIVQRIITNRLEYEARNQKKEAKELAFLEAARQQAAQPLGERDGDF

B1: caspase 3 expressed in E. coli as Histidine tagged subunit 2-subunit 1 (S2-S1) fusion protein (protein)
chain: SGISLDNSYKMDYPEMGLCIIINNKNFHKSTGMTSRSGTDVDAANLRETFRNLKYEVRNKNDLTREEIVELMRDVSKEDHSKRSSFVCVLLSHGEEGIIFGTNGPVDLKKITNFFRGDRCRSLTGKPKLFIIQACRGTELDCGIETDSGVDDDMACHKIPVEADFLYAYSTAPGYYSWRNSKDGSWFIQSLCAMLKQYADKLEFMHILTRVNRKVATEFESFSFDATFHAKKQIPCIVSMLTKELYFYH
- cleavage in the protease assay with bacterial lysate (1 or 4 RU) [1]: it was not cleaved by caspase-3 nor by caspase-9

B2: caspase 9 expressed in E. coli as Histidine tagged subunit 2-subunit 1 (S2-S1) fusion protein (protein)
chain: GALESLRGNADLAYILSMEPCGHCLIINNVNFCRESGLRTRTGSNIDCEKLRRRFSSLHFMVEVKGDLTAKKMVLALLELAQQDHGALDCCVVVILSHGCQASHLQFPGAVYGTDGCPVSVEKIVNIFNGTSCPSLGGKPKLFFIQACGGEQKDHGFEVASTSPEDESPGSNPEPDATPFQEGLRTFDQLDAISSLPTPSDIFVSYSTFPGFVSWRDPKSGSWYVETLDDIFEQWAHSEDLQSLLLRVANAVSVKGIYKQMPGCFNFLRKKLFFKTS
- cleavage in the protease assay with bacterial lysate (1 or 4 RU) [1]: it was not cleaved by caspase-3 nor by caspase-9

B3: bacterially produced caspase-8 (in-vitro protease assay of Example 2.4) (protein)
chain: T4 chain
- cleavage in vitro [2]: The polypeptide encoded by Clone J2 is cleaved in-vitro by caspase-8
- cleavage in vitro [3]: Clone B33 was cleaved by caspase-8 both in-vitro and in-vivo
- cleavage in vitro [4]: Clone L20 is cleaved by caspase 8 both in-vitro and in-vivo
- cleavage in the in-vitro protease assay (35S labeled protein, SDS-PAGE, autoradiography) [5]: Clone L12 is cleaved in-vitro by caspase-8 as shown by an in-vitro protease assay
- cleavage in the in-vitro protease assay [6]: Clone B11 was cleaved in-vitro by caspase-8 as demonstrated in the assay described in the above-mentioned Example 2.4

B4: protein encoded by clone L5 (Tip60, Tat interacting protein 60 kDa, lacking amino acids 94 to 145) (protein)
chain: MAEVGEIIEGCRLPVLRRNQDNEDEWPLAEILSVKDISGRKLFYVHYIDFNKRLDEWVTHERLDLKKIQFPKKEAKTPTKNGLPGSRPGSPEREVKRKVEVVSPATPVPSETAPASVFPQNGAARRAVAAQPGRKRKSNCLGTDEDSQDSSDGIPSAPRMTGSLVSDRSHDDIVTRMKNIECIELGRHRLKPWYFSPYPQELTTLPVLYLCEFCLKYGRSLKCLQRHLTKCDLRHPPGNEIYRKGTISFFEIDGRKNKSYSQNLCLLAKCFLDHKTLYYDTDPFLFYVMTEYDCKGFHIVGYFSKEKESTEDYNVACILTLPPYQRRGYGKLLIEFSYELSKVEGKTGTPEKPLSDLGLLSYRSYWSQTILEILMGLKSESGERPQITINEISEITSIKKEDVISTLQYLNLINYYKGQYILTLSEDIVDGHERAMLKRLLRIDSKCLHFTPKDWSKRGKW
- cleavage in the in-vitro protease assay [7]: Clone L5 was cleaved in-vitro by caspase-8 in the in-vitro protease assay described in Example 2.4
